In patent US20220389120A1 (published 2022):

B1: ZA2-ld (protein)
chain: SDTGRPFVEMYSEIPEIIHMTEGRELVIPCRVTSPNITVTLKKFPLDTLIPDGKRIIWDSRKGFIISNATYKEIGLLTCEATVNGHLYKTNYLTHRQTNTIIDVVLSPSHGIELSVGEKLVLNCTARTELNVGIDFNWEYPSSKHQHKKLVNRDLKTQSGSEMKKFLSTLTIDGVTRSDQGLYTCAASSGLMTKKNSTFVRVHEKESKYGPPCPPCPAPEFLGGPSVFLFPPKPKDTLMISRTPEVTCVVVDVSQEDPEVQFNWYVDGVEVHNAKTKPREEQFNSTYRVVSVLTVLHQDWLNGKEYKCKVSNKGLPSSIEKTISKAKGQPREPQVYTLPPSQEEMGGAQTNFMPMDDLEQRLYEQFILQQGGGGSGGGGSGGGGSGGGGSTNFMPMDDLEQRLYEQFILQQGLETKNQVSLTCLVKGFYPSDIAVEWESNGQPENNYKTTPPVLDSDGSFFLYSRLTVDKSRWQEGNVFSCSVMHEALHNHYTQKSLSLSLGK
B2: ZA2-ls (protein)
chain: SDTGRPFVEMYSEIPEIIHMTEGRELVIPCRVTSPNITVTLKKFPLDTLIPDGKRIIWDSRKGFIISNATYKEIGLLTCEATVNGHLYKTNYLTHRQTNTIIDVVLSPSHGIELSVGEKLVLNCTARTELNVGIDFNWEYPSSKHQHKKLVNRDLKTQSGSEMKKFLSTLTIDGVTRSDQGLYTCAASSGLMTKKNSTFVRVHEKESKYGPPCPPCPAPEFLGGPSVFLFPPKPKDTLMISRTPEVTCVVVDVSQEDPEVQFNWYVDGVEVHNAKTKPREEQFNSTYRVVSVLTVLHQDWLNGKEYKCKVSNKGLPSSIEKTISKAKGQPREPQVYTLPPSQEEMGGAQTNFMPMDDLEQRLYEQFILQQGLETKNQVSLTCLVKGFYPSDIAVEWESNGQPENNYKTTPPVLDSDGSFFLYSRLTVDKSRWQEGNVFSCSVMHEALHNHYTQKSLSLSLGK
B3: A2Z-ld (Fc fusion)
chain: ESKYGPPCPPCPAPEFLGGPSVFLFPPKPKDTLMISRTPEVTCVVVDVSQEDPEVQFNWYVDGVEVHNAKTKPREEQFNSTYRVVSVLTVLHQDWLNGKEYKCKVSNKGLPSSIEKTISKAKGQPREPQVYTLPPSQEEMGGAQTNFMPMDDLEQRLYEQFILQQGGGGSGGGGSGGGGSGGGGSTNFMPMDDLEQRLYEQFILQQGLETKNQVSLTCLVKGFYPSDIAVEWESNGQPENNYKTTPPVLDSDGSFFLYSRLTVDKSRWQEGNVFSCSVMHEALHNHYTQKSLSLSLGKGGGGGAQSDTGRPFVEMYSEIPEIIHMTEGRELVIPCRVTSPNITVTLKKFPLDTLIPDGKRIIWDSRKGFIISNATYKEIGLLTCEATVNGHLYKTNYLTHRQTNTIIDVVLSPSHGIELSVGEKLVLNCTARTELNVGIDFNWEYPSSKHQHKKLVNRDLKTQSGSEMKKFLSTLTIDGVTRSDQGLYTCAASSGLMTKKNSTFVRVHEKLE
B4: GS01-A (other)
heavy: QVQLVQSGAEVKKPGASVKVSCKASGYTFTSYYIHWVRQAPGQGLEWMGWIFPGSGNSKYNENFKGRVTLTADTSTSTVYMELSSLRSEDTAVYYCASETYDYGDYWGQGTLVTVSSASTKGPSVFPLAPCSRSTSESTAALGCLVKDYFPEPVTVSWNSGALTSGVHTFPAVLQSSGLYSLSSVVTVPSSSLGTKTYTCNVDHKPSNTKVDKRVESKYGPPCPPCPAPEFLGGPSVFLFPPKPKDTLMISRTPEVTCVVVDVSQEDPEVQFNWYVDGVEVHNAKTKPREEQFNSTYRVVSVLTVLHQDWLNGKEYKCKVSNKGLPSSIEKTISKAKGQPREPQVYTLPPSQEEMGGAQTNFMPMDDLEQRLYEQFILQQGGGGSGGGGSGGGGSGGGGSTNFMPMDDLEQRLYEQFILQQGLETKNQVSLTCLVKGFYPSDIAVEWESNGQPENNYKTTPPVLDSDGSFFLYSRLTVDKSRWQEGNVFSCSVMHEALHNHYTQKSLSLSLGKGGGGSGGGGSGGGGSGGGGSEVQLVESGGGLVQPGGSLRLSCAASGFTISDYWIHWVRQAPGKGLEWVAGITPAGGYTYYADSVKGRFTISADTSKNTAYLQMNSLRAEDTAVYYCARFVFFLPYAMDYWGQGTLVTVSSGGGGSGGGGSGGGGSGGGGSDIQMTQSPSSLSASVGDRVTITCRASQDVSTAVAWYQQKPGKAPKLLIYSASFLYSGVPSRFSGSGSGTDFTLTISSLQPEDFATYYCQQGYGNPFTFGQGTKVEIK
light: DIQMTQSPSFLSASVGDRVTITCKASQNVGTNVAWYQQKPGKAPKALIYSASYRYSGVPSRFSGSGSGTEFTLTISSLQPEDFATYYCQQYYSYPYTFGQGTKLEIKRTVAAPSVFIFPPSDEQLKSGTASVVCLLNNFYPREAKVQWKVDNALQSGNSQESVTEQDSKDSTYSLSSTLTLSKADYEKHKVYACEVTHQGLSSPVTKSFNRGEC

What was measured:
[1] = target: T1, recombinant human Ang2 (Biolegend) (human, UniProt O15123 19-496); experiment: Ang2-Tie2 blocking ELISA; Test 2
T1 chain: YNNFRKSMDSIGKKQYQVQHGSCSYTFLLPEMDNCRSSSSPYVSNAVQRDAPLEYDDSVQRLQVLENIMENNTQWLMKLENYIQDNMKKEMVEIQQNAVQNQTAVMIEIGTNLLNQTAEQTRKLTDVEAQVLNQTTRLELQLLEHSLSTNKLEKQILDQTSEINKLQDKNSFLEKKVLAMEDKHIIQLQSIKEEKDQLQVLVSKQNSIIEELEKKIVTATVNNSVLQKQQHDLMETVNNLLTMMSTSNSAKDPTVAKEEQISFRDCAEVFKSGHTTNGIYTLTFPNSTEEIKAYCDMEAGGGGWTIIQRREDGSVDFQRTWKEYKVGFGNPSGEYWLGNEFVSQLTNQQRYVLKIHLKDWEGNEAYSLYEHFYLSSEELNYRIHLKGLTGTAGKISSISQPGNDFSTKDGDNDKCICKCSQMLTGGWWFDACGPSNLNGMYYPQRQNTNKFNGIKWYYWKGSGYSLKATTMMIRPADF

[2] = target: T1, recombinant human Ang2 (Biolegend); experiment: Ang2-Tie2 blocking ELISA; Test 3
[3] = target: T1, recombinant human Ang2 (Biolegend); experiment: Ang2-Tie2 blocking ELISA; Test 1
[4] = target: PD-1 (UniProt Q15116 25-167); experiment: PD-1 blocking assay
Sequence of PD-1 (Q15116 25-167): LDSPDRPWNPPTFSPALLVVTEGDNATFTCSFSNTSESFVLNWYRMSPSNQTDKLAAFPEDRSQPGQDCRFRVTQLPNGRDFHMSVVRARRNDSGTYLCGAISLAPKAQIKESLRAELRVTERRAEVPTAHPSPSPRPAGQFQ

[5] = target: T1, recombinant human Ang2 (Biolegend); experiment: ELISA

| Binder | IC50 [1] | IC50 [2] | IC50 [3] | IC50 [4] | EC50 [5] |
| --- | --- | --- | --- | --- | --- |
| B1 | 0.2 nM | 0.03 nM |  |  |  |
| B2 |  | 0.1 nM |  |  |  |
| B3 | 0.21 nM |  | 0.19 nM |  |  |
| B4 |  |  |  | 0.272 nM | 0.211 µg/mL |
